Source: US20250281600A1 (published 2025)

Molecular target: SARS-COV-2 Spike Protein Native RBD (UniProt P0DTC2 333-526)
Experiment: BLI

B1: REGN10933 IgG (antibody, V domains shown)
VH: QVQLVESGGGLVKPGGSLRLSCAASGFTFSDYYMSWIRQAPGKGLEWVSYITYSGSTIYYADSVKGRFTISRDNAKSSLYLQMNSLRAEDTAVYYCARDRGTTMVPFDYWGQGTLVTVSS
VL: DIQMTQSPSSLSASVGDRVTITCQASQDITNYLNWYQQKPGKAPKLLIYAASNLETGVPSRFSGSGSGTDFTFTISGLQPEDIATYYCQQYDNLPLTFGGGTKVEIKR
B1 showed a Kd of 1.8 nM.
